Reference: PMC7933982 (The Journal of Cell Biology, 2021)

Target: T1, GST-CBD (S. cerevisiae, UniProt P19524 1152-1574)
T1 sequence (looked up): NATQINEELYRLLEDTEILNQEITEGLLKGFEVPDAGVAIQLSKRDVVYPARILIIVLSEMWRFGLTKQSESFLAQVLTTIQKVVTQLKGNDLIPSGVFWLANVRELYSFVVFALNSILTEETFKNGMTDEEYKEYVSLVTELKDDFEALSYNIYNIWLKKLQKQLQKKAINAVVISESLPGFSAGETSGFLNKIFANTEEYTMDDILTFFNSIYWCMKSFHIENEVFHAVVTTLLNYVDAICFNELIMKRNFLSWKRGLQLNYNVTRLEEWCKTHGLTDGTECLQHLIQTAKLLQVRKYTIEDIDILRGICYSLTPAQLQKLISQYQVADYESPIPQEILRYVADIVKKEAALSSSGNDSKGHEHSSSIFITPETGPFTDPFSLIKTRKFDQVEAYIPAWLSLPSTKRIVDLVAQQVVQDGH
Experiment: pull-down

B1: 6xHis-Pea2_(221–350) (domain or fragment, S. cerevisiae, UniProt P40091 221-350, looked up)
chain: EKNTSSPPISPNAAAIQEEDSSKKLEELETAFSDLQLAHNFLTKQFENDRAEYVQDIEKLTRTNRELQDKLLNNHSNLSKTEKKLHELEQENKELEKANNKLNSSRHNFGMSSPASSPVTWDPSSPSSVG
binding result: binds
